The text below walks through data of patent US20050191626, “Method for forming a stable complex comprising a transcription product and translation product of a dna encoding a desired polypeptide, a nucleic acid construct used for the method, a complex formed by the method, and screening of a functional protein and mrna or dna encoding the protein using the …” (published 2005).

Data set [1] deals with T1, DHFR-(RE)1 (DHFR fused to one HIV Tat-derived RE peptide) (UniProt P04608).
T1 sequence: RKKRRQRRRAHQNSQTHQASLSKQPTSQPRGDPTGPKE
As to the kind of experiment: EMSA. As to conditions: apparent Kd; 10 mM Tris-HCl pH 8.0, 70 mM NaCl, 2 mM EDTA, 0.1% NP-40, 40 nM tRNA, 30 C. For orientation: A gel shift assay detects complexes by their altered migration in electrophoresis.

The target of data set [2] is T2, DHFR-(RE)2 (DHFR fused to two tandem Tat-derived RE peptides) (UniProt P04608).
T2 sequence: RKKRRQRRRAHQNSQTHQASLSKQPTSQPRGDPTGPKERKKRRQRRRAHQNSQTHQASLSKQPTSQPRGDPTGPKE
As to the kind of experiment: EMSA. As to conditions: apparent Kd; 10 mM Tris-HCl pH 8.0, 70 mM NaCl, 2 mM EDTA, 0.1% NP-40, 40 nM tRNA, 30 C.

For data set [3], the target named is T3, DHFR-(RE)3 (DHFR fused to three tandem Tat-derived RE peptides) (UniProt P04608).
T3 sequence: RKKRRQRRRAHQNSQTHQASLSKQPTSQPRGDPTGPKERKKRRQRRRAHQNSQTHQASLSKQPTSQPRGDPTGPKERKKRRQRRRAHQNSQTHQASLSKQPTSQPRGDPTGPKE
As to the kind of experiment: EMSA. As to conditions: apparent Kd; 10 mM Tris-HCl pH 8.0, 70 mM NaCl, 2 mM EDTA, 0.1% NP-40, 40 nM tRNA, 30 C.

Data set [4] concerns the target dihydrofolate reductase (DHFR), wild type (UniProt P0ABQ4 P0ABQ4:1-159). As to the kind of experiment: EMSA; no mobility change with increasing wild-type DHFR. Particulars: tags: poly-His (pET30a); label: 5'-32P.

With “AAAAAACGAAGCUUGAUCCCGUUUGCCGGUCGAUCGCUUCG [(Apt)1 Tat aptamer]”, the Kd in data set [1] was less than 24 nM. As for “AAAAAACGAAGCUUGAUCCCGUUUGCCGGUCGAUCGCUUCGAAAAAACGAAGCUUGAUCCCGUUUGCCGGUCGAUCGCUUCG [(Apt)2 two tandem Tat aptamers via A6 linker]”, in data set [2], the Kd is less than 0.2 nM. As to “AAAAAACGAAGCUUGAUCCCGUUUGCCGGUCGAUCGCUUCGAAAAAACGAAGCUUGAUCCCGUUUGCCGGUCGAUCGCUUCGAAAAAACGAAGCUUGAUCCCGUUUGCCGGUCGAUCGCUUCG [(Apt)3 three tandem Tat aptamers via A6 linkers]”, the Kd in data set [3] was less than 0.016 nM. Regarding AAAAAACGAAGCUUGAUCCCGUUUGCCGGUCGAUCGCUUCG (ssRNA) [(Apt)1 Tat aptamer], in data set [4], the binding result is listed as “no binding”.

B1: (Apt)2 two tandem Tat aptamers via A6 linker (ssRNA)
RNA: AAAAAACGAAGCUUGAUCCCGUUUGCCGGUCGAUCGCUUCGAAAAAACGAAGCUUGAUCCCGUUUGCCGGUCGAUCGCUUCG
As to B1, the binding result in data set [4] is reported as “no binding”.

B2: (Apt)3 three tandem Tat aptamers via A6 linkers (ssRNA)
RNA: AAAAAACGAAGCUUGAUCCCGUUUGCCGGUCGAUCGCUUCGAAAAAACGAAGCUUGAUCCCGUUUGCCGGUCGAUCGCUUCGAAAAAACGAAGCUUGAUCCCGUUUGCCGGUCGAUCGCUUCG
In the case of B2, the binding result in data set [4] is listed as “no binding”.
